Measurements taken from patent publication US20170037106A1 (FLOREY INSTITUTE OF NEUROSCIENCE AND MENTAL HEALTH, published 2017).
Square brackets hold non-standard residues; d marks the D form. Ends that are not written are not given here. hArg = N=C(N)NCCCC[C@H](N)C(=O)O

T1: 7BP: fusion protein comprising the extracellular domain of RXFP1 and the transmembrane domain of CD8, on cells (UniProt Q9HBX9 1-409)
T1 construct: extracellular domain;domain: transmembrane domain; also called 7BP cells; not shown: transmembrane domain of CD8
T1 sequence (looked up): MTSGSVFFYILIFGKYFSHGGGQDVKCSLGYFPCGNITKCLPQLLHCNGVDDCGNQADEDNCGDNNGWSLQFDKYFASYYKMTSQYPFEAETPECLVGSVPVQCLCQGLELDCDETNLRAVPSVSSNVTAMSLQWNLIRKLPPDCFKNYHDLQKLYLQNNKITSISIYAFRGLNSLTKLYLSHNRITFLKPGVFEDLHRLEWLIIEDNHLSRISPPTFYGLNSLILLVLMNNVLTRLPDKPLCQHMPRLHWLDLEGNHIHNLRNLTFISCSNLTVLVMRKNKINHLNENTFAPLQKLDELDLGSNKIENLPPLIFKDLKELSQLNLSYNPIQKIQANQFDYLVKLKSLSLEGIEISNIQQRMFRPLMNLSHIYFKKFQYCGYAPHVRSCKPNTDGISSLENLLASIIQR

T2: RXFP1 (LGR7) receptor, on stably transfected HEK-293T cells (UniProt Q9HBX9)
T2 sequence (looked up): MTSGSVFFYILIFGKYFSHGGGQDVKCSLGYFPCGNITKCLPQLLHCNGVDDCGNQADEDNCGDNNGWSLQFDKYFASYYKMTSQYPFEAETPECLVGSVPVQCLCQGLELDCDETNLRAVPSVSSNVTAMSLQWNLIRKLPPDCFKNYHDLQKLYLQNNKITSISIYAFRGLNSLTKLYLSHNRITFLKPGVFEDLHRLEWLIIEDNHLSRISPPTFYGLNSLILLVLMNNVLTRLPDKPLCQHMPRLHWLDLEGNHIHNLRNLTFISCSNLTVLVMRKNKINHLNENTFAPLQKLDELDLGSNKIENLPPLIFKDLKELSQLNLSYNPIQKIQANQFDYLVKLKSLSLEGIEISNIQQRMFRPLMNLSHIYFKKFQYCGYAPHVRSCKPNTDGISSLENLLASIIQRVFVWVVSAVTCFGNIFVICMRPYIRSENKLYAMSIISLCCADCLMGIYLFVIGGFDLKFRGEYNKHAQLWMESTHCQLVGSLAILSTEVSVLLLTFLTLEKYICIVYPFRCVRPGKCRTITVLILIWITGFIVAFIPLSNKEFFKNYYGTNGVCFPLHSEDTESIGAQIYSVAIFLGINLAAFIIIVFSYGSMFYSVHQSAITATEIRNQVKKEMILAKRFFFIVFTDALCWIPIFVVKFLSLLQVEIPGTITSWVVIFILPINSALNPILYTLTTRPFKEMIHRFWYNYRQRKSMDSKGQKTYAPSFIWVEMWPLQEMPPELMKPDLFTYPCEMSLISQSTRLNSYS

T3: RXFP1 (LGR7) receptor, on stably transfected HEK-293T cells (UniProt Q9HBX9 1-757, limits assumed)
T3 sequence (looked up): T2 sequence (looked up)

B1: native H2 relaxin (human relaxin-2, heterodimer of A chain and B1-29 B chain) (ligand)
chain 1: QLYSALANKCCHVGCTKRSLARFC
chain 2: DSWMEEVIKLCGRELVRAQIAICGMSTWS
modifications: disulfide (positions not given here); ends not checked; also: three disulfides (two inter-chain, one within A chain), places not given here
notes: mature; Two chains linked by three disulfide bonds (two inter-chain, one within the A chain); also called native human relaxin-2; Eu^3+-labelled H2 relaxin (tracer form)
B2: KKKK (AcB7-29 C11.23S) (peptide)
peptide: Ac-VIKLSGRELVRAQIAISGMSTWSKKKK-NH2
notes: AcB7-29 C11.23S with KKKK at the C-terminus in place of KRSL
B3: Modified B7-33 (B7-33 C11.23S) (peptide)
peptide: VIKLSGRELVRAQIAISGMSTWSKRSL-NH2
notes: also called single chain B7-33 C11.23S peptide
B4: R17A (AcB7-33 C11.23S) (peptide)
peptide: Ac-VIKLSGRELVAAQIAISGMSTWSKRSL-NH2
B5: AcB7-33 C11.23S (peptide)
peptide: Ac-VIKLSGRELVRAQIAISGMSTWSKRSL-NH2
B6: R13A (AcB7-33 C11.23S) (peptide)
peptide: Ac-VIKLSGAELVRAQIAISGMSTWSKRSL-NH2
B7: R13/17A I20A (AcB7-33 C11.23S) (peptide)
peptide: Ac-VIKLSGAELVAAQAAISGMSTWSKRSL-NH2
B8: B7-29 C11.23S (peptide)
peptide: VIKLSGRELVRAQIAISGMSTWS-NH2
B9: Native B7-33 (peptide)
peptide: VIKLCGRELVRAQIAICGMSTWSKRSL-NH2
modifications: not fully specified; printed as VIKLCGRELVRAQIAICGMSTWSKRSL-NH2; also: oxidised (ox), disulfide pattern not described
notes: also called B7-33ox
B10: B7-33 C11.23S R17K (peptide)
peptide: VIKLSGRELVKAQIAISGMSTWSKRSL-NH2
B11: I20A (AcB7-33 C11.23S) (peptide)
peptide: Ac-VIKLSGRELVRAQAAISGMSTWSKRSL-NH2
B12: B1-33ox (peptide)
peptide: DSWMEEVIKLCGRELVRAQIAICGMSTWSKRSL-NH2
modifications: not fully specified (bridges); printed as DSWMEEVIKLCGRELVRAQIAICGMSTWSKRSL-NH2; cysteine pairing not given here
B13: B1-33 C11.23S (peptide)
peptide: DSWMEEVIKLSGRELVRAQIAISGMSTWSKRSL-NH2
B14: B7-33 C11.23S R17HR (peptide)
peptide: VIKLSGRELV[hArg]AQIAISGMSTWSKRSL-NH2
modifications: N-terminus assumed
SMILES: CC[C@H](C)[C@H](NC(=O)[C@H](C)NC(=O)[C@@H](NC(=O)[C@H](CCC(N)=O)NC(=O)[C@H](C)NC(=O)[C@H](CCCCNC(=N)N)NC(=O)[C@@H](NC(=O)[C@H](CC(C)C)NC(=O)[C@H](CCC(=O)O)NC(=O)[C@H](CCCNC(=N)N)NC(=O)CNC(=O)[C@H](CO)NC(=O)[C@H](CC(C)C)NC(=O)[C@H](CCCCN)NC(=O)[C@@H](NC(=O)[C@@H](N)C(C)C)[C@@H](C)CC)C(C)C)[C@@H](C)CC)C(=O)N[C@@H](CO)C(=O)NCC(=O)N[C@@H](CCSC)C(=O)N[C@@H](CO)C(=O)N[C@H](C(=O)N[C@@H](Cc1c[nH]c2ccccc12)C(=O)N[C@@H](CO)C(=O)N[C@@H](CCCCN)C(=O)N[C@@H](CCCNC(=N)N)C(=O)N[C@@H](CO)C(=O)N[C@@H](CC(C)C)C(N)=O)[C@@H](C)O

Molecular target: T1, 7BP: fusion protein comprising the …
Assay: Eu-H2 relaxin competition on 7BP cells

| pKi [log M] | Binder |
| --- | --- |
| 8.97 | B1 |
| 8.91 | B2 |
| 7.65 | B3 |
| 6.01 | B4 |
| 7.54 | B5 |
| 5.76 | B6 |
| 5.54 | B7 |

Molecular target: T2, RXFP1 (LGR7) receptor, on stably transfected HEK-293T cells
Assay: cell-based or functional assay

| cAMP pEC50 [log M] | Binder |
| --- | --- |
| < 5 | B4 |
| < 5 | B6 |
| < 5 | B7 |

Molecular target: T3, RXFP1 (LGR7) receptor, on stably …
Assay: cell-based or functional assay

| cAMP pEC50 [log M] | Binder |
| --- | --- |
| < 5 | B8 |
| 10.5 | B1 |
| 5.81 | B2 |
| 5.11 | B9 |
| < 5 | B10 |
| 5.12 | B3 |
| < 5 | B11 |
| 5.4 | B5 |
| < 5 | B12 |
| 5.1 | B13 |
| < 5 | B14 |

Molecular target: T3, RXFP1 (LGR7) receptor, on stably …
Assay: Eu-H2 relaxin competition, whole HEK-293T cells stably expressing RXFP1
Description: Human embryonic kidney (HEK-293T) cells stably transfected with RXFP1 were cultured in RPMI 1640 medium supplemented with 10% fetal calf serum, 100 μg/ml penicillin, 100 μg/ml streptomycin and 2 mM L-glutamine and plated into 96-well pre-coated with poly-L-lysine for whole cell binding assays. Competition binding experiments were conducted with Eu³⁺-labelled H2 relaxin (as per Shabanpoor et al., 2012, Biochem Biophys Res Commun. 420, 253-256) in the absence or presence of increasing concentrations of unlabelled relaxin-2 B chain derivatives. Nonspecific binding was determined with an excess of unlabelled peptides (500 nM H2 relaxin). Fluorescent measurements were recorded at an excitation wavelength of 340 nm and emission of 614 nm on a Victor plate reader (Perkin-Elmer Inc.). […] Statistical differences in pIC₅₀ values were analyzed using one-way analysis of variance coupled to Newman Keul's multiple comparison test for multiple group comparisons in GraphPad Prism 6.
#p < 0.001 vs H2 relaxin ¹Data are presented as the mean ± S.E of the percentage of the total specific binding of triplicate wells, repeated in at least three separate experiments, and curves were fitted using one-site binding curves in GraphPad Prism 6 (GraphPad Inc, San Diego, CA).

| pKi [log M] | Binder |
| --- | --- |
| 8.96 | B1 |
| 6.25 | B2 |
| 6.15 | B9 |
| 5.54 | B3 |
| 6 | B5 |
| 6.61 | B12 |
| 5.33 | B13 |
| 6.52 | B14 |
